Results on 1 molecule are retold here after publication PMC3207290 (The Journal of Cell Biology, 2011).

This assay has as its target F-actin (polymerized rabbit muscle G-actin) (rabbit, UniProt P68135 1-377). Nature of the assay: co-sedimentation.

B1: bovine GRK5-Flag (enzyme)
chain: MELENIVANTVLLKAREGGGGKRKGKSKKWKEILKFPHINQCEDLRRTIDRDYCSLCDKQPVGRLLFRQFCETRPGLESYIQFLDSVAEYEVTPDEKLGEKGKEIMTKYLTPKSPVFITQVGRDLVSQTEEKLLQKPCKELFSACVQSVHDYLRGEPFHEYLDSMYFDRFLQWKWLERQPVTKNTFRQYRVLGKGGFGEVCACQVRATGKMYACKRLEKKRIKKRKGESMALNEKQILEKVNSRFVVNLAYAYETKDALCLVLTIMNGGDLKFHIYNMGNPGFEEERALFYAAEILCGLEDLHHENIVYRDLKPENILLDDYGHIRISDLGLAVKIPEGDLIRGRVGTVGYMAPEVLNNQRYGLSPDYWGLGCLIYEMIEGQSPFRGRKEKVKREEVDRRVLETEEVYSHKFSEEAKSICKMLLTKDAKQRLGCQEEGAAEVKRHPFFRNMNFKRLEAGMLDPPFVPDPRAVYCKDVLDIEQFSTVKGVNLDHTDDDFYSKFSTGSVPIPWQSEMIETECFKELNVFGPHGTLSPDLNRSHPPEPPKKGLLQRLFKRQHQNNSKSSPNSKTSFNHHINSNHVSSNSTGSS
The term Kd denotes the concentration at which binding is half-saturated. Regarding B1, the Kd worked out at 809 ± 245 nM.
